Results taken from patent US20120321619A1 (Bayer, published 2012).

How the values were obtained:
[1] = target: T1, human C4.4a natively expressed on tumor cell lines (human, UniProt O95274 31-326); experiment: FACS titration on NCI H322 cells (native C4.4a), IgG1 format, phycoerythrin-labelled goat anti-human IgG detection
T1 construct: whole, on cells; also called NCI H292; NCI H322
T1 sequence (looked up): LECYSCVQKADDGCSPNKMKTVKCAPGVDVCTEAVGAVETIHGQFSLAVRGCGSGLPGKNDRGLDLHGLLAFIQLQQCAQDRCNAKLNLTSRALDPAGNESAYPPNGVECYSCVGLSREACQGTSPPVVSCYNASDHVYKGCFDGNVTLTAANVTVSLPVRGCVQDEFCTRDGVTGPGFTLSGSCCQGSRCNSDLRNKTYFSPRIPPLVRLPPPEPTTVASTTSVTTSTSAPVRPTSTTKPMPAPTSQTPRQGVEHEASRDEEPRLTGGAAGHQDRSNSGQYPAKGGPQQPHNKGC
Description: (§1) FACS titration was performed in a 96 well microtiter plate, in which serial dilutions of the primary antibody in a volume of 50 W of FACS buffer (3% FCS, in PBS) were mixed with 50 μl of a cell suspension consisting of 2×10^5 cells/ml which had been detached with Cell Dissociation Solution (1×) Non-enzymatic (Sigma), and resuspended in FACS buffer. Incubation was performed at 4° C. for 1 hour with agitation. Cells were pelleted, washed with FACS buffer and resuspended in 100 μl/well of Phycoerythrin labeled goat anti human IgG (Dianova) solution in FACS buffer. Incubation and washing was performed as before. Analysis of cell-bound antibodies was done at the respective detection wavelength using the FACS Array device. EC₅₀ values were determined from fluorescence medians of duplicates using Swift 8.0 software.

[2] = target: T2, recombinant soluble murine C4.4a (mouse, UniProt Q91YK8 33-343, limits assumed); experiment: ELISA, IgG1 on coated recombinant murine C4.4a
T2 construct: also called mouse C4.4a; mC4.4a
T2 sequence (looked up): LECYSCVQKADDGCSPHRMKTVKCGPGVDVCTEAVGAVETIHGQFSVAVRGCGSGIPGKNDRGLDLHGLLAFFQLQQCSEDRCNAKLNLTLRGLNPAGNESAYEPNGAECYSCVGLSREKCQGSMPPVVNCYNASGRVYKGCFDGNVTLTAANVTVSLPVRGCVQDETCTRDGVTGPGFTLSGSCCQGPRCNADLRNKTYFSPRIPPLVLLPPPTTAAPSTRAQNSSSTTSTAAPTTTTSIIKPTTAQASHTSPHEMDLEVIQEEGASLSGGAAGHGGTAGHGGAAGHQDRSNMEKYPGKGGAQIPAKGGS
Description: (§2) FIG. 2 depicts binding curves of anti-C4.4 antibody M31-B01 and M20 D02 S-A on recombinant human C4.4a (A) and murine C4.4a (B) respectively. Briefly, 96-well MTP were coated for 16 h at 4° C. with recombinant human or mouse C4.4a (100 ng/well plates were washed 3 times with PBS/0.05% Tween 20 (=buffer B) treated with blocking reagent (PBS+2% BSA), and washed again 3 times with buffer B. After that anti C4.4a antibodies of the invention were added in concentrations of 0.39 ng to 400 ng/per well and incubated for one hour at 20° C. After washing 3 times with buffer B, 20 ng of Protein A were added in 100 μl buffer B to each well. Color reaction was developed by addition of 50 W 3,3′,5,5′-Tetramethylbenzidine (TMB) (Sigma). Data for EC₅₀ determination were recorded after 18 min by measuring extinction […] a Tecan infinite plate reader. EC₅₀ values for M31-B01 were 0.24 and 0.29 nM on human and murine C4.4a, respectively. And for M20-D02 S-A EC₅₀ values were 0.3 and 0.38 nM on human and murine C4.4a, respectively. This indicates high affinity binding of anti C4.4a antibodies of the invention to both human and murine soluble recombinant C4.4a.

[3] = target: T3, recombinant soluble human C4.4a (human, UniProt O95274 31-308); experiment: ELISA, IgG1 on coated recombinant human C4.4a
T3 construct: recombinant, soluble, purified protein; also called hC4.4a; full length C4.4a
T3 sequence: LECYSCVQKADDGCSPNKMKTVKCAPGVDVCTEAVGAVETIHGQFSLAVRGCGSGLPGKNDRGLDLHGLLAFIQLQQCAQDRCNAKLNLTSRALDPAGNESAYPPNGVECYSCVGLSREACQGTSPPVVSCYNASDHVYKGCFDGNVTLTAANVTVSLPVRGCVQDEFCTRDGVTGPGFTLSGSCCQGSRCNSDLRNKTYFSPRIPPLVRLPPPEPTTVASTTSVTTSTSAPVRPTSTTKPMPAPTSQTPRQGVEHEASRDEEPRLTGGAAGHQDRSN
Description: as §2

[4] = target: T4, human C4.4a on transfected A549:hC4.4a cells (human, UniProt O95274 31-326); experiment: cell-based or functional assay
T4 sequence: T1 sequence (looked up)

[5] = target: T5, murine C4.4a on transfected CHO-S:mC4.4a cells (mouse, UniProt Q91YK8 33-343); experiment: FACS titration of IgG1 on CHO-S:mC4.4a cells
T5 construct: full length GPI-anchored form, stably transfected; also called Mouse C4.4a:CHO; mC4.4a: CHO
T5 sequence: T2 sequence (looked up)

[6] = target: T4, human C4.4a on transfected A549:hC4.4a …; experiment: FACS titration on transfected A549:hC4.4a cells (printed 'A549:C4.4a'), IgG1 format, phycoerythrin-labelled goat anti-human IgG detection
Description: as §1

[7] = target: T1, human C4.4a natively expressed on tumor …; experiment: FACS titration of IgG1 on NCI H292 cells
Description: as §1

[8] = target: T1, human C4.4a natively expressed on tumor …; experiment: FACS titration on H1975/BCRP cells (native C4.4a), IgG1 format, phycoerythrin-labelled goat anti-human IgG detection
Description: as §1

B1: M31-B01 (antibody, human IgG1, V domains shown)
VH: EVQLLESGGGLVQPGGSLRLSCAASGFTFSNAWMSWVRQAPGKGLEWVSYISSSGSTIYYADSVKGRFTISRDNSKNTLYLQMNSLRAEDTAVYYCAREGLWAFDYWGQGTLVTVTS
VL: QSVLTQPPSASGTPGQRVTISCTGSSSNIGAGYVVHWYQQLPGTAPKLLIYDNNKRPSGVPDRFSGSKSGTSASLAISGLRSEDEADYYCAAWDDRLNGPVFGGGTKLTVLG
notes: tested as human IgG1
B1 showed an EC50 [1] of 0.3 nM, an EC50 [2] of 0.29 nM and an EC50 [3] of 0.24 nM. For the same binder, the “internalization t½ [min] into A549:hC4.4a cells (CypHer 5E labeled antibody)” value [4] was 49 min, the EC50 [5] was 1.9 nM and the EC50 [6] was 1.9 nM. It also gave an EC50 [7] of 0.3 nM and an EC50 [8] of 0.4 nM.

B2: M20-D02 S-A (antibody, human IgG1, V domains shown)
VH: EVQLLESGGGLVQPGGSLRLSCAASGFTFSDYQMTWIRQTPGKGLEWVSGVSWNGARTHYADSVKGRFTISRDNSKNTLYLQMNSLRAEDTAVYYCAKGDYLVYSAYYFDSWGQGTLVTVTS
VL: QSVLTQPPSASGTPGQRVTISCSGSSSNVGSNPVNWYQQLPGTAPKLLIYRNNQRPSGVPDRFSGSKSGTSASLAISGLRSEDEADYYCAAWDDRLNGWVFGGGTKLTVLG
notes: tested as human IgG1
For B2, the EC50 [1] was 1.2 nM, the EC50 [2] was 0.38 nM and the EC50 [3] was 0.3 nM. For the same binder, the “internalization t½ [min] into A549:hC4.4a cells (CypHer 5E labeled antibody)” value [4] was 60 min, the EC50 [5] was 1.6 nM and the EC50 [6] was 4.3 nM. For the same binder, the EC50 [7] was 1.3 nM and the EC50 [8] was 1.3 nM.
